± gives the uncertainty stated by the source.
Experiment: self-splicing fitness, log relative to wild type (ln ratio); higher = more splicing; Tetrahymena group I intron in knt gene, E. coli kanamycin selection, DiMSum; sequences stand for … in CUCUCU…GGAGGGAAAAGUUAUCAGGCAUGCACCUGGUAGCUAGUCUUUAAACCAAUAGAUUGCAUCGGUUUAAAAGGCAAGACCGUCAAAUUGCGGGAAAGGGGUCAACAGCCGUUCAGUACCAAGUCUCAGGGGAAACUUUGAGAUGGCCUUGCAAAGGGUAUGGUAAUAAGCUGACGGACAUGGUCCUAACCACGCAGCCAAGUCCUAAGUCAACAGAUCUUCUGUUGAUAUGGAUGCAGUUCACAGACUAAAUGUCGGUCGGGGAAGAUGUAUUCUUCUCAUAAGAUAUAGUCGGACCUCUCCUUAAUGGGAGCUAGCGGAUGAAGUGAUGCAACACUGGAGCCGCUGGGAACUAAUUUGUAUGCGAAAGUAUAUUGAUUAGUUUUGGAGUACUCGUGGUCG
Method in brief: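 DiMSum derived fitness as the error-weighted combination of fold changes across replicates, kanamycin versus no kanamycin, normalised to wild type. E. coli BL21(DE3) held the library, which randomised all eight P1ex-region intron nucleotides within the knt kanamycin-resistance gene on pET-22b(+). Six replicate transformations grew overnight at 37°C or 30°C on LB agar with or without 25 μg/mL kanamycin, also containing 100 μg/mL carbenicillin, 50 μM IPTG and 0.2% rhamnose, and pooled colonies were amplicon-sequenced on an Illumina HiSeq 2500.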

Row | Sequence | self-splicing fitness (ln) (30 °C) | self-splicing fitness (ln) (37 °C)
1 | UUCUAGCAAUAUUACGCGGG | -3.28 ± 0.23 | -2.29 ± 0.22
2 | UUCUAGCAAUAUUACGCGUC | -3.14 ± 0.39 | -1.45 ± 0.25
3 | UUCUAGCAAUAUUACGCUUA | -1.24 ± 0.12 | -0.839 ± 0.14
4 | UUCUAGCAAUAUUACGCUUU | -3.89 ± 0.26 | -1.82 ± 0.22
5 | UUCUAGCAAUAUUACGGAAA | – | -1.4 ± 0.45
6 | UUCUAGCAAUAUUACGGAUU | -2.7 ± 0.15 | -0.761 ± 0.14
7 | UUCUAGCAAUAUUACGGCUG | -2.38 ± 0.21 | -1.6 ± 0.2
8 | UUCUAGCAAUAUUACGGGAA | -2.38 ± 0.19 | -2.8 ± 0.28
9 | UUCUAGCAAUAUUACGUAUC | -3.32 ± 0.27 | -2.05 ± 0.22
10 | UUCUAGCAAUAUUACGUCCA | -2.13 ± 0.19 | -0.134 ± 0.17
11 | UUCUAGCAAUAUUACGUCUA | -3.64 ± 0.26 | -2.2 ± 0.17
12 | UUCUAGCAAUAUUACGUUGG | -2.65 ± 0.24 | –
13 | UUGAAGCAAUAUUACGAACA | 0.602 ± 0.15 | -0.488 ± 0.23
14 | UUGAAGCAAUAUUACGAAUC | -3.58 ± 0.37 | -2.12 ± 0.32
15 | UUGAAGCAAUAUUACGACAG | 0.483 ± 0.091 | 0.232 ± 0.11
16 | UUGAAGCAAUAUUACGACCA | -0.132 ± 0.12 | 0.61 ± 0.15
17 | UUGAAGCAAUAUUACGACUC | -1.26 ± 0.079 | -0.526 ± 0.11
18 | UUGAAGCAAUAUUACGACUU | -1.37 ± 0.14 | 0.101 ± 0.17
19 | UUGAAGCAAUAUUACGAGUA | -1.83 ± 0.077 | -0.59 ± 0.085
20 | UUGAAGCAAUAUUACGAUCU | -1.3 ± 0.13 | -0.67 ± 0.14
21 | UUGAAGCAAUAUUACGCACG | -0.255 ± 0.15 | -0.521 ± 0.15
22 | UUGAAGCAAUAUUACGCACU | -0.156 ± 0.091 | 0.362 ± 0.1
23 | UUGAAGCAAUAUUACGCCGG | -0.0467 ± 0.11 | 0.0153 ± 0.15
24 | UUGAAGCAAUAUUACGCCGU | -1.33 ± 0.15 | -0.893 ± 0.18
25 | UUGAAGCAAUAUUACGCUAC | – | -1.75 ± 0.37
26 | UUGAAGCAAUAUUACGCUUG | -1.02 ± 0.064 | -0.679 ± 0.087

Row | Sequence | self-splicing fitness (ln) (30 °C) | self-splicing fitness (ln) (37 °C)
27 | UUGAAGCAAUAUUACGGAAA | -0.265 ± 0.1 | -0.0838 ± 0.14
28 | UUGAAGCAAUAUUACGGAGG | -0.866 ± 0.11 | -0.64 ± 0.14
29 | UUGAAGCAAUAUUACGGAUA | -0.345 ± 0.08 | -0.413 ± 0.1
30 | UUGAAGCAAUAUUACGGCUU | -3.03 ± 0.26 | -2.71 ± 0.3
31 | UUGAAGCAAUAUUACGGGAG | -1.2 ± 0.1 | -0.884 ± 0.12
32 | UUGAAGCAAUAUUACGGGCG | -0.128 ± 0.061 | 0.407 ± 0.084
33 | UUGAAGCAAUAUUACGGGGC | -3.3 ± 0.2 | -2.74 ± 0.3
34 | UUGAAGCAAUAUUACGGUUC | -3.01 ± 0.2 | -2.08 ± 0.27
35 | UUGAAGCAAUAUUACGUAUC | – | -1.93 ± 0.42
36 | UUGAAGCAAUAUUACGUGGA | -2.33 ± 0.11 | -1.6 ± 0.14
37 | UUGAAGCAAUAUUACGUGGG | -2.69 ± 0.099 | -1.35 ± 0.1
38 | UUGAAGCAAUAUUACGUUAA | -1.47 ± 0.075 | -0.311 ± 0.11
39 | UUGAAGCAAUAUUACGUUAC | – | -2.51 ± 0.23
40 | UUGCAGCAAUAUUACGAGGU | -3.94 ± 0.33 | -2.65 ± 0.44
41 | UUGCAGCAAUAUUACGAUUC | -3.53 ± 0.38 | -1.71 ± 0.19
42 | UUGCAGCAAUAUUACGCCAU | -2.8 ± 0.11 | -2.49 ± 0.16
43 | UUGCAGCAAUAUUACGCCCU | 0.32 ± 0.46 | –
44 | UUGCAGCAAUAUUACGCGUG | -3.13 ± 0.14 | -2.7 ± 0.17
45 | UUGCAGCAAUAUUACGCGUU | -2.41 ± 0.21 | -1.94 ± 0.18
46 | UUGCAGCAAUAUUACGCUGG | -3.51 ± 0.32 | –
47 | UUGCAGCAAUAUUACGCUGU | -2.71 ± 0.35 | -1.23 ± 0.32
48 | UUGCAGCAAUAUUACGGCCA | -0.118 ± 0.16 | 0.347 ± 0.19
49 | UUGCAGCAAUAUUACGGGAA | -1.51 ± 0.12 | 0.101 ± 0.11
50 | UUGCAGCAAUAUUACGGGCG | -0.91 ± 0.11 | -0.511 ± 0.11
51 | UUGCAGCAAUAUUACGGGUA | -1.76 ± 0.097 | -0.893 ± 0.087
52 | UUGCAGCAAUAUUACGGUAA | -0.988 ± 0.099 | -0.0317 ± 0.093

Row | Sequence | self-splicing fitness (ln) (30 °C) | self-splicing fitness (ln) (37 °C)
53 | UUGCAGCAAUAUUACGGUCC | -4.25 ± 0.39 | -2.69 ± 0.26
54 | UUGCAGCAAUAUUACGGUUA | 0.353 ± 0.082 | 0.0359 ± 0.075
55 | UUGCAGCAAUAUUACGUACC | -3.54 ± 0.47 | -2.55 ± 0.33
56 | UUGCAGCAAUAUUACGUAGG | -0.924 ± 0.086 | -0.486 ± 0.11
57 | UUGCAGCAAUAUUACGUCAA | -1.48 ± 0.1 | -0.523 ± 0.11
58 | UUGCAGCAAUAUUACGUCAG | -0.419 ± 0.11 | 0.42 ± 0.14
59 | UUGCAGCAAUAUUACGUCCC | – | -1.44 ± 0.37
60 | UUGCAGCAAUAUUACGUUCA | -0.896 ± 0.12 | 0.241 ± 0.12
61 | UUGGAGCAAUAUUACGACGG | 0.664 ± 0.22 | -0.775 ± 0.29
62 | UUGGAGCAAUAUUACGAUAG | -2.56 ± 0.37 | –
63 | UUGGAGCAAUAUUACGCCGG | – | -1.08 ± 0.34
64 | UUGGAGCAAUAUUACGCGGU | -2.83 ± 0.26 | -2.14 ± 0.38
65 | UUGGAGCAAUAUUACGGCAG | -1.6 ± 0.17 | -1.01 ± 0.22
66 | UUGGAGCAAUAUUACGGGAU | – | -2.77 ± 0.4
67 | UUGGAGCAAUAUUACGUAUC | -2.95 ± 0.2 | –
68 | UUGGAGCAAUAUUACGUAUU | -4.53 ± 0.39 | -1.7 ± 0.22
69 | UUGGAGCAAUAUUACGUCUU | – | -2.09 ± 0.5
70 | UUGGAGCAAUAUUACGUGUU | -2.58 ± 0.2 | -2.79 ± 0.33
71 | UUGGAGCAAUAUUACGUUGG | -1.5 ± 0.27 | -2.92 ± 0.28
72 | UUGUAGCAAUAUUACGAAAA | -1.86 ± 0.17 | -0.986 ± 0.19
73 | UUGUAGCAAUAUUACGAAAU | -3.24 ± 0.46 | -2.15 ± 0.4
74 | UUGUAGCAAUAUUACGAACU | -2.24 ± 0.11 | 0.102 ± 0.1
75 | UUGUAGCAAUAUUACGAUCC | – | -0.641 ± 0.37
76 | UUGUAGCAAUAUUACGAUUU | -3.15 ± 0.25 | -1.91 ± 0.24
77 | UUGUAGCAAUAUUACGCAUC | -3.41 ± 0.34 | -3.19 ± 0.43
78 | UUGUAGCAAUAUUACGCCAA | -1.22 ± 0.13 | -0.297 ± 0.13

Row | Sequence | self-splicing fitness (ln) (30 °C) | self-splicing fitness (ln) (37 °C)
79 | UUGUAGCAAUAUUACGCCUG | 0.32 ± 0.14 | 0.399 ± 0.15
80 | UUGUAGCAAUAUUACGCGGG | -3 ± 0.25 | -2.32 ± 0.16
81 | UUGUAGCAAUAUUACGGACA | -1.61 ± 0.31 | -0.454 ± 0.39
82 | UUGUAGCAAUAUUACGGCCG | -0.356 ± 0.17 | -0.462 ± 0.22
83 | UUGUAGCAAUAUUACGGUCU | -2.53 ± 0.21 | -1.53 ± 0.17
84 | UUGUAGCAAUAUUACGGUUG | -2.38 ± 0.12 | -0.9 ± 0.12
85 | UUGUAGCAAUAUUACGUACA | -1.51 ± 0.2 | -0.822 ± 0.17
86 | UUGUAGCAAUAUUACGUCUG | -0.639 ± 0.067 | 0.19 ± 0.086
87 | UUGUAGCAAUAUUACGUUUU | -2.52 ± 0.24 | -1.98 ± 0.17
88 | UUUAAGCAAUAUUACGAACU | -2.51 ± 0.23 | -1.98 ± 0.23
89 | UUUAAGCAAUAUUACGACAC | -2.23 ± 0.44 | –
90 | UUUAAGCAAUAUUACGACCU | -1.72 ± 0.21 | -1.3 ± 0.18
91 | UUUAAGCAAUAUUACGAGCC | -1.83 ± 0.36 | –
92 | UUUAAGCAAUAUUACGAGUC | – | -2.65 ± 0.48
93 | UUUAAGCAAUAUUACGAUAU | -2.91 ± 0.14 | -1.52 ± 0.14
94 | UUUAAGCAAUAUUACGAUUU | -1.92 ± 0.16 | -0.754 ± 0.13
95 | UUUAAGCAAUAUUACGCAAU | -2.5 ± 0.24 | -1.55 ± 0.23
96 | UUUAAGCAAUAUUACGCACC | -2.05 ± 0.21 | -0.66 ± 0.22
97 | UUUAAGCAAUAUUACGCAUG | -1.07 ± 0.089 | -0.408 ± 0.099
98 | UUUAAGCAAUAUUACGCGUC | -1.9 ± 0.18 | -1.77 ± 0.25
99 | UUUAAGCAAUAUUACGCUCC | -2.1 ± 0.22 | -0.172 ± 0.29
100 | UUUAAGCAAUAUUACGCUUA | – | -3.03 ± 0.33
101 | UUUAAGCAAUAUUACGGAAG | -2.97 ± 0.26 | -1.37 ± 0.3
